Test results: patent US9814672B2, “Echogenic vehicle for clinical delivery of plasminogen activator and other fibrin-binding therapeutics to thrombi” (priority 2007, dated 2017)
Read-outs that look alike come from different tables or passages of the source.

Columns and labels:
[1] = molecular target: T1, fibrin (Homo sapiens, UniProt P02671+P02675+P02679); assay: Two-stage fibrin pad ELISA, Scatchard and van't Hoff analysis; conditions: undiluted fresh-frozen rabbit serum, 37° C.; read-out: binding affinity (KD) in serum
T1 construct: were incubated on replicate fibrin pads, prepared in microplate wells; purchased Calbiochem (EMD Biosciences, Inc., La Jolla, Calif.)
T1 sequence (P02671 36-629 limits assumed): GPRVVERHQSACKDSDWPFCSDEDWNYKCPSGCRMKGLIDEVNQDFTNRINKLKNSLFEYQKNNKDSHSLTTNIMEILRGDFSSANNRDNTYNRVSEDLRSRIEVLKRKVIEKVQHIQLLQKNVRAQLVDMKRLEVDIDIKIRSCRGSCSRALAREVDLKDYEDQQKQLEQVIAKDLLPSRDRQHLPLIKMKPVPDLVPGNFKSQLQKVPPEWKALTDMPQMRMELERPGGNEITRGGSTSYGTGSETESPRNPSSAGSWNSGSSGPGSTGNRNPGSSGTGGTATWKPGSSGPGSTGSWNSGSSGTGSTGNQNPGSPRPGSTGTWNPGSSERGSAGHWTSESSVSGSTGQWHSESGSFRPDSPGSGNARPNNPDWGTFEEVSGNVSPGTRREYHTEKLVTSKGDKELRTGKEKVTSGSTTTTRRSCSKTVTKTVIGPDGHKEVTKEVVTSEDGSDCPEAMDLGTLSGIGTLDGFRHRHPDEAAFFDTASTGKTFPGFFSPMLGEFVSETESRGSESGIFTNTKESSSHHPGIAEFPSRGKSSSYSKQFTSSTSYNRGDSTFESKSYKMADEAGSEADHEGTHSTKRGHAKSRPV
T1 sequence (P02675 45-491 limits assumed): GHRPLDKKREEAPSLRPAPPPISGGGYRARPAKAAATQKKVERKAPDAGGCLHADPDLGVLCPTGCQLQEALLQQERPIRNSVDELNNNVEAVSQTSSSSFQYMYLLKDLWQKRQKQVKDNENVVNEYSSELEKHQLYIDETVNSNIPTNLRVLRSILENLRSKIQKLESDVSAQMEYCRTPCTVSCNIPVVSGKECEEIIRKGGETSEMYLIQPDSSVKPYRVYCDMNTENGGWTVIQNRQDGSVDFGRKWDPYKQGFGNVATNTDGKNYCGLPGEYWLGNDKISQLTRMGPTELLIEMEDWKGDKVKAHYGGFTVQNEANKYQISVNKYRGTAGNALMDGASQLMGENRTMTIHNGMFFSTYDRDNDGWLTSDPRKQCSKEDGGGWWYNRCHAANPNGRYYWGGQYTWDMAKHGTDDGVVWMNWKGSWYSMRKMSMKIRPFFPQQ
T1 sequence (P02679 27-437 isoform P02679-2 limits assumed): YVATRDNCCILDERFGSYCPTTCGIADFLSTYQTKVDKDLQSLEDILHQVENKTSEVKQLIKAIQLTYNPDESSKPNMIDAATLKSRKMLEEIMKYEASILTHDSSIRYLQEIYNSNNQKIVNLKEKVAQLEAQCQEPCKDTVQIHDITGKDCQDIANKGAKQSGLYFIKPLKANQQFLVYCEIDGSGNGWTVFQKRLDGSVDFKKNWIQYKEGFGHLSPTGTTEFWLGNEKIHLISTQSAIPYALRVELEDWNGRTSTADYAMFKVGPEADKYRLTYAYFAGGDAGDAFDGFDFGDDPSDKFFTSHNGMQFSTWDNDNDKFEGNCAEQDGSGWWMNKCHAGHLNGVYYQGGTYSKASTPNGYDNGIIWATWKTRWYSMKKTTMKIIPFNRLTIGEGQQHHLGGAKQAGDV

[2] = tPA enzyme activity after PPACK inactivation, paranitroanilide-substrate method; format: biochemical; conditions: S.E., n=3
Procedure: Reconstituted tPA was incubated with a fivefold molar excess of PPACK in 0.2 M L-arginine in 0.05M phosphate buffer, pH 7.2, with 0.01% Tween 20 for 1 hour at room temperature, followed by dialysis against reaction buffer to remove unreacted PPACK. A control preparation was carried through the procedure without PPACK and all procedures involving PPACK were protected from light. Enzyme activity in PPACK-treated and control tPA preparations was measured with a […] paranitroanilide-substrate method (Ranby and Wallen, 1981).

[3] = molecular target: T1, fibrin; conditions: SOFIA-tPA assay; read-out: KD of tPA-fibrin binding reported by Angles-Cano (1986); cited from earlier work
[4] = tested on: occluded femoral artery; conditions: tPA infusion with transcutaneous ultrasound; cited from earlier work

Substance: tPA(P): Human recombinant tPA (Activase®) irreversibly inhibited with D-phe-L-pro-L-arg-chloromethyl ketone (PPACK)
- Kd [1]: 9.52 nM
- Percent Starting Activity [2]: 4.7 ± 2.9%

Substance: tPA: Recombinant tissue-plasminogen activator (Activase®, Genentech Inc.), used as the thrombolytic agent [reference compound]
- Kd [3]: 1.4 ± 2 nM
- decrease in time for recanalization [4]: 80%
